In US5925558:

How the values were obtained:
[1] = molecular target: GFP N-terminal phosphorylation mutant -1… (Aequorea victoria)
[2] = molecular target: GFP N-terminal phosphorylation mutant -2… (Aequorea victoria)
[3] = molecular target: GFP N-terminal phosphorylation mutant 1MSRRRRSI (Aequorea victoria)
[4] = molecular target: GFP N-terminal phosphorylation mutant -3… (Aequorea victoria)
[5] = molecular target: GFP N-terminal phosphorylation mutant 1MRRRRSII (Aequorea victoria)
[6] = molecular target: GFP N-terminal phosphorylation mutant 1MRRESLLF (Aequorea victoria); settings: scale: relative rate
[7] = molecular target: GFP N-terminal phosphorylation mutant 1MRRDSCLF (Aequorea victoria); settings: scale: relative rate
[8] = molecular target: GFP N-terminal phosphorylation mutant 1MRKGSLLF (Aequorea victoria); settings: scale: relative rate
[9] = molecular target: wild-type Aequorea green fluorescent protein (Aequorea victoria); settings: scale: relative rate
[10] = molecular target: GFP N-terminal phosphorylation mutant 1MSKRRDSL (Aequorea victoria); settings: scale: relative rate
[11] = molecular target: GFP N-terminal phosphorylation mutant 1MRKGSCLF (Aequorea victoria); settings: scale: relative rate
[12] = molecular target: GFP N-terminal phosphorylation mutant 1MSRRDSCF (Aequorea victoria); settings: scale: relative rate
[13] = molecular target: GFP phosphorylation mutant 214KRDSM (Aequorea victoria); settings: scale: relative rate
[14] = molecular target: GFP phosphorylation mutant 68RRFSA (Aequorea victoria); settings: scale: relative rate
[15] = molecular target: GFP phosphorylation mutant 172RRGSV (Aequorea victoria); settings: scale: relative rate
[16] = molecular target: GFP phosphorylation mutant 25RRFSV (Aequorea victoria); settings: scale: relative rate
[17] = molecular target: GFP phosphorylation mutant 155KRKSGI (Aequorea victoria); settings: scale: relative rate

% Change in fluorescence upon phosphorylation [1]: 43%
% Change in fluorescence upon phosphorylation [2]: 15%
% Change in fluorescence upon phosphorylation [3]: 40%
% Change in fluorescence upon phosphorylation [4]: 70%
% Change in fluorescence upon phosphorylation [5]: 70%
Relative rates of phosphorylation (32P incorporation) [6]: 3
Relative rates of phosphorylation (32P incorporation) [7]: 3.7
Relative rates of phosphorylation (32P incorporation) [8]: 1.6
Relative rates of phosphorylation (32P incorporation) [9]: 1
Relative rates of phosphorylation (32P incorporation) [10]: 5.5
Relative rates of phosphorylation (32P incorporation) [11]: 5.1
Relative rates of phosphorylation (32P incorporation) [12]: 2.1
Relative rates of phosphorylation (32P incorporation) [13]: 1.88
Relative rates of phosphorylation (32P incorporation) [14]: 0.6
Relative rates of phosphorylation (32P incorporation) [15]: 1.57
Relative rates of phosphorylation (32P incorporation) [16]: 1.75
Relative rates of phosphorylation (32P incorporation) [17]: 2.5
Substance: protein kinase A catalytic subunit (enzyme)
